Data as given in patent US7803762B1, “Ready-to-use bivalirudin compositions” (The Medicines Company, priority 2009, dated 2010).

Assay: Investigation of pH of bivalirudin solutions (degradation at pH 2-6)
Assay type: physicochemical
Conditions: 1 mg/ml aqueous solution
Experimental: The degradation pathway of bivalirudin was investigated by preparing aqueous solutions at 1 mg/ml of bivalirudin at pH 2, 3, 4, 5 and 6 (Table 1). […] The excessive degradation observed was attributed to a change in pH during storage wherein the final pH of the bivalirudin compositions was about 7.

D-Phenylalanyl-L-Prolyl-L-Arginyl-L-Prolyl-Glycyl-Glycyl-Glycyl-Glycyl-L-Asparagyl-Glycyl-L-Aspartyl-L-Phenylalanyl-L-Glutamyl-L-Glutamyl-L-Isoleucyl-L-Prolyl-L-Glutamyl-L-Glutamyl-L-Tyrosyl-L-Leucine trifluoroacetate (salt) hydrate [bivalirudin]
Asp^9-Bivalirudin (pH 2, 25° C./1 month): 2.58 % AUC
Total Degradants (pH 2, 25° C./1 month): 64.8 % AUC
Asp^9-Bivalirudin (pH 2, Initial): 0.45 % AUC
Total Degradants (pH 2, Initial): 0.6 % AUC
Asp^9-Bivalirudin (pH 3, 25° C./1 month): 2.71 % AUC
Total Degradants (pH 3, 25° C./1 month): 37.7 % AUC
Asp^9-Bivalirudin (pH 3, Initial): 0.76 % AUC
Total Degradants (pH 3, Initial): 0.9 % AUC
Asp^9-Bivalirudin (pH 4, 25° C./1 month): 1.26 % AUC
Total Degradants (pH 4, 25° C./1 month): 51.1 % AUC
Asp^9-Bivalirudin (pH 4, Initial): 0.59 % AUC
Total Degradants (pH 4, Initial): 3.1 % AUC
Asp^9-Bivalirudin / Total Degradants (pH 5, 25° C./1 month): complete degradation
Asp^9-Bivalirudin (pH 5, Initial): 0.84 % AUC
Total Degradants (pH 5, Initial): 3.4 % AUC
Asp^9-Bivalirudin / Total Degradants (pH 6, 25° C./1 month): complete degradation
Asp^9-Bivalirudin (pH 6, Initial): 1.19 % AUC
Total Degradants (pH 6, Initial): 4.7 % AUC
